Bridge positions count the residues as written; N and C are the ends. Peptide text beside a SMILES is read from it.
T1: KLK5 (Homo sapiens, UniProt Q9Y337)
T1 construct: purchased R&D Systems 1108-SE
T1 sequence (Q9Y337 23-293): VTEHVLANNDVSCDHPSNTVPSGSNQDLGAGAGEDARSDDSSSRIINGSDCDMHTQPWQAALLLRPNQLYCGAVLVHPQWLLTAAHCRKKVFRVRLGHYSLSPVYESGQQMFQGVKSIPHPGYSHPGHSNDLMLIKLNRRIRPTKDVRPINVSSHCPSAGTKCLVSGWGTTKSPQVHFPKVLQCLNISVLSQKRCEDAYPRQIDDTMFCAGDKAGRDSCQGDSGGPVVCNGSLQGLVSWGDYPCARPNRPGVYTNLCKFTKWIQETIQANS

T2: KLK14 (UniProt Q9P0G3)
T2 sequence (Q9P0G3 41-267, species assumed, looked up): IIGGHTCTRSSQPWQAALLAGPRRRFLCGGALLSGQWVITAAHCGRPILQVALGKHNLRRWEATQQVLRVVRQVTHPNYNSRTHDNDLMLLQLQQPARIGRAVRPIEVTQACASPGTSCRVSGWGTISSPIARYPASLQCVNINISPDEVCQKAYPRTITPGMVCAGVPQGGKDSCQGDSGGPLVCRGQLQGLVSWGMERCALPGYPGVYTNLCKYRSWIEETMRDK

T3: KLK8 (UniProt O60259 33-260)
T3 construct: Kallikrein 8 (KLK8); construct and source are in the Supporting Information
T3 sequence (looked up): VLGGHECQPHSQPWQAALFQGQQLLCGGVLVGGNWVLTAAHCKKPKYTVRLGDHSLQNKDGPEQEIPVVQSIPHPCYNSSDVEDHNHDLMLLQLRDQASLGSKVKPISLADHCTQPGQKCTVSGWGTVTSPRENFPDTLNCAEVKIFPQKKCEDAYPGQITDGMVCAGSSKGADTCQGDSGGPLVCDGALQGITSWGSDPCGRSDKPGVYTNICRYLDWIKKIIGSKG

B1: SFTI analogue 5 (peptide)
peptide: cyclo(GFCTRSNPPHCWPN)
modifications: disulfide 3-11 (inferred)
notes: scaffold of analogue 2 grafted with residues of a LEKTI domain, serine kept at P1'; source: synthetic peptide (Fmoc solid-phase synthesis, cyclised via N to S acyl shift, oxidised, RP-HPLC purified)
B2: SFTI analogue 3 (peptide)
peptide: cyclo(GFCTRENPPHCWPN)
modifications: disulfide 3-11 (inferred)
notes: scaffold of analogue 2 grafted with residues of a LEKTI domain; source: synthetic peptide (Fmoc solid-phase synthesis, cyclised via N to S acyl shift, oxidised, RP-HPLC purified)
B3: SFTI analogue 6 (peptide)
peptide: cyclo(GFCHRSYPPHCWPN)
modifications: disulfide 3-11 (inferred)
notes: scaffold of analogue 2 grafted with residues of a LEKTI or LEKTI-like domain, serine kept at P1'; source: synthetic peptide (Fmoc solid-phase synthesis, cyclised via N to S acyl shift, oxidised, RP-HPLC purified)
B4: SFTI-1 triple mutant 2, cyclo-[…] (peptide)
peptide: cyclo(GRCTRSIPPHCWPD)
modifications: disulfide 3-11 (inferred)
B5: SFTI analogue 4 (peptide)
peptide: cyclo(GFCHREYPPHCWPN)
modifications: disulfide 3-11 (inferred)
notes: scaffold of analogue 2 grafted with residues of a LEKTI or LEKTI-like domain; source: synthetic peptide (Fmoc solid-phase synthesis, cyclised via N to S acyl shift, oxidised, RP-HPLC purified)
B6: SFTI-1 triple mutant 2, cyclo-[GRCTRSIPPHCWPD] (peptide)
peptide: cyclo(GRCTRSIPPHCWPD)
modifications: disulfide 3-11 (inferred)
notes: numbers count on: the mature 14-residue cyclic peptide; source: synthetic peptide (Fmoc solid-phase synthesis, cyclised via N to S acyl shift, oxidised, RP-HPLC purified)
B7: SFTI analogue 9 (peptide)
peptide: cyclo(GSCTRSSPPECWPN)
modifications: disulfide 3-11 (inferred)
notes: SFTI scaffold grafted with residues of a further LEKTI domain, glutamic acid at position 10; source: synthetic peptide (hydrazide peptide, cyclised via native chemical ligation, oxidised, RP-HPLC purified)
B8: SFTI analogue 10 (peptide)
peptide: cyclo(GYCTRSSPPECWPN)
modifications: disulfide 3-11 (inferred)
notes: as for B7

Tests used:
KLK5 = biological target: T1, KLK5; assay: Protease activity assay: inhibition of recombinant KLK5 (Boc-VPR-AMC substrate); type: biochemical
Method: Inhibitory activity against KLK5 was evaluated using the fluorogenic substrate Boc-VPR-AMC for KLK5 (Table ). […] The P1–P1′ reactive site (Arg5 to Ser6) is critical for inhibitor binding, with the P1′ position contributing up to 50% of the total association energy. , The conserved serine at P1′ in Bowman-Birk inhibitors (BBIs) is essential for function. […] Preservation of serine in the P1′ position restored inhibitory activity seen in 5 and 6. Preserving the native serine restored efficacy to the nanomolar range (5: 31 ± 7 nM; 6: 114 ± 11 nM).
Methods for biological experiment
SFTI analogues were created by individual amino acid substitutions in PYMOL (Python Molecular Graphics System) using the existing solution NMR structure of native SFTI - 1 (1JBL) found in the RCSB (Research Collaboratory for Structural Bioinformatics) database. Residues of 2 were mutated as follows: L5R, I10H, and F12W with conserved SFTI-1 backbone structure. Other SFTI based analogues were further modified using PYMOL. Currently, there are no SFTI-1 and Kallikrein 5 co-crystal structures found in the RCSB database. Superimposing the existing crystal structure of SFTI-1 and Trypsin complex (4XOJ) with Kallikrein 5 crystal structure (2PSX) was performed with PYMOL. Ab-initio docking between KLK5 and 2 were performed with HADDOCK 2.4 1, 2, with binding active site parameter set to Arg2, Cys3, Thr4, Arg5, Ser6 for 2 and Ser195, His57, and Asp102 for KLK5 catalytic triad. PRODIGY 3-5, set at 25 °C, was used to predict dissociation constant and binding interactions of docked clusters. Structural visualization and alignment were performed with PYMOL 6, and comparative sequence analysis was performed with MEGA11 7.
A fluorescence spectrometer using SpectraMax® i3x plate reader (Molecular Devices, United States) was used to measure the relative fluorescence unit (RFU) on a 96-well black microplate (Grenier Bio-one, cat no. 655074). The wavelengths were set to 360/460 nm (excitation/emission) for the substrate Boc-VPR-AMC (Bachem AG, cat no. 4003460) and 320/405nm for the substrate Mca-RPKPVE-Nval-WRK(Dnp)-NH2 Fluorogenic MMP Substrate (R&D Systems Biotechne, cat no.ES002). The Boc-VPR-AMC stock solution was prepared by dissolving the solid form in dimethyl sulfoxide to 100 mM. Mca-RPKPVE-Nval-WRK(Dnp)-NH2 fluorogenic MMP Substrate is supplied as stock solution at 10.0 mg/mL in dimethyl sulfoxide. Boc-VPR-AMC was used as a substrate for KLK5, 8 and 14. Mca-RPKPVE-Nval-WRK(Dnp)-NH2 was used as a substrate for KLK7. The ligand-only solution serves as a negative control (minimum RFU, 100% inhibition), and enzyme-only was served as positive (maximum RFU, 0% inhibition). The activities of proteases were measured and readout against the standard curve made in serial dilutions of tested recombinant KLKs, ranging from 0nM to 60nM. Each assay was done in triplicates and repeated at least for three times […]
Assessment of analogue mediated inhibition of KLK5, KLK7, KLK8, and KLK14 […]
Recombinant KLK5 (R&D Systems, cat no. 1108-SE) was diluted to a final concentration of 10 nM in 1X PBS (pH 8.0). KLK5 was pre -incubated on ice for 1 hour with serial dilutions of SFTI-derived analogues to assess inhibitory activity. After incubation, 20 µL of each mixture was transferred to we lls of a 96-well microplate in triplicates. The enzymatic reaction was initiated by adding 100 µL of Boc -VPR-AMC substrate (final concentration 100 µM) to each well. Fluorescence (RFU) was measured using a SpectraMax® i3x plate reader with chamber temperature maintained at 37°C. Readings were started at 0 minutes (baseline) and another […]
Recombinant KLK7 (R&D Systems , cat no. 2624-SE) and KLK14 (R&D Systems, cat no. 2664-SE) were activated by adding 1 mM CaCl ₂ 0.05% v/v Brij-35 (Sigma, cat no. […]
incubated at 37°C for 1 hour. Reactions were stopped by adding EDTA to a final concentration of 50 mM (Sigma, cat no. EDS-100G) KLK8 (catalytic domain only; R&D Systems, cat no. 2025-SE-010) was activated separately with 11 nM lysyl […]

[1] = biological target: Kallikrein-related peptidase 5 (KLK5) (UniProt Q9Y337 23-293); assay: enzyme inhibition assay (fluorogenic substrate); inhibition of KLK5 activity by the peptide, fluorogenic substrate Boc-VPR-AMC, n = 3; conditions in the Supporting Information; conditions: both partners purified
KLK7 = KLK7 (Homo sapiens, UniProt P49862); assay: enzyme inhibition assay (fluorogenic substrate); selectivity: inhibition of KLK7, KLK8 or KLK14 activity by the peptide, n = 3; substrates and conditions in the Supporting Information
KLK14 = biological target: T2, KLK14; assay: as above
KLK8 = biological target: T3, KLK8; assay: as above; conditions: both partners purified

Row | Molecule | IC50 [1] | IC50 (KLK14) | IC50 (KLK8) | other results
1 | CC[C@H](C)[C@@H]1NC(=O)[C@H](CO)NC(=O)[C@H](CCCNC(=N)N)NC(=O)[C@H]([C@@H](C)O)NC(=O)[C@@H]2CSSC[C@H](NC(=O)[C@H](Cc3c[nH]cn3)NC(=O)[C@@H]3CCCN3C(=O)[C@@H]3CCCN3C1=O)C(=O)N[C@@H](Cc1c[nH]c3ccccc13)C(=O)N1CCC[C@H]1C(=O)N[C@@H](CC(=O)O)C(=O)NCC(=O)N[C@@H](CCCNC(=N)N)C(=O)N2 [compound 2] (cyclo(CTRSIPPHCWPDGR); disulfide 1-9) | – | – | – | IC50 (KLK5; n = 3, 10 nM KLK5, Boc-VPR-AMC 100 µM, PBS pH 8.0, read-out: IC50 (n = 3)/nM for KLKs: KLK5): 54 ± 3 nM
2 | N=C(N)NCCC[C@@H]1NC(=O)[C@H](Cc2c[nH]cn2)NC(=O)[C@@H]2CSSC[C@H](NC(=O)[C@H](CCC(=O)O)NC(=O)[C@@H]3CCCN3C(=O)[C@@H]3CCCN3C(=O)[C@H](Cc3ccc(O)cc3)NC(=O)[C@H](CO)NC1=O)C(=O)N[C@@H](Cc1c[nH]c3ccccc13)C(=O)N1CCC[C@H]1C(=O)N[C@@H](CC(N)=O)C(=O)NCC(=O)N[C@@H](Cc1ccccc1)C(=O)N2 [compound 8] | – | – | – | increase in KLK5 inhibitory potency (IC50) compared to 2 (KLK5; ratio of IC50 values): 7 fold; increase in KLK5 inhibitory potency (IC50) relative to 1 (KLK5; ratio of IC50 values): 28 fold
3 | B1 | 31 ± 7 nM | – | – | –
4 | B2 | 1800 ± 58 nM | – | – | –
5 | B3 | 114 ± 11 nM | – | – | –
6 | B4 | – | 24 nM | – | IC50 (KLK7): 534 nM
7 | B5 | 1490 ± 50 nM | – | – | –
8 | B6 | – | – | 373 ± 31 nM | –
9 | B7 | – | > 1000 nM | > 1000 nM | –
10 | B8 | – | > 1000 nM | > 1000 nM | –
